Assay results taken from patent US20180215825A1 (BEIGENE, published 2018).
Numbering of substitutions follows the chain as printed.

B1: hu333-4B2-IgG1mc (antibody)
heavy: EVQLVESGGGLVQPGGSLRLSCAVSGFSLTSYGVHWVRQAPGKGLEWVAVIWAGGSTNYADSVKGRFTISKDTSKNTVYLQMNSLRAEDTAVYYCAKPYGTSAMDYWGQGTLVTVSSASTKGPSVFPLAPSSKSTSGGTAALGCLVKDYFPEPVTVSWNSGALTSGVHTFPAVLQSSGLYSLSSVVTVPSSSLGTQTYICNVNHKPSNTKVDKKVEPKSCDKTHTCPPCPAPPAAAPSVFLFPPKPKDTLMISRTPEVTCVVVDVSHEDPEVKFNWYVDGVEVHNAKTKPREEQYNSTYRVVSVLTVLHQDWLNGKEYKCKVSNKALAAPIEKTISKAKGQPREPQVYTLPPSRDELTKNQVSLTCLVKGFYPSDIAVEWESNGQPENNYKTTPPVLDSDGSFFLYSKLTVDKSRWQQGNVFSCSVMHEALHNHYTQKSLSLSPGK
light: DIQMTQSPSSLSASVGDRVTITCKASQDVGIVVAWYQQKPGKAPKLLIYWASIRHTGVPSRFSGSGSGTEFTLTISSLQPDDFATYYCQQYSNYPLYTFGQGTKVEIKRTVAAPSVFIFPPSDEQLKSGTASVVCLLNNFYPREAKVQWKVDNALQSGNSQESVTEQDSKDSTYSLSSTLTLSKADYEKHKVYACEVTHQGLSSPVTKSFNRGEC
B2: hu333-4A2-IgG1mc (antibody)
heavy: B1 heavy with A60V, T73N, S74A
light: B1 light
B3: hu333-4B2-IgG1mf (antibody)
heavy: B1 heavy with A236G
light: B1 light
B4: hu333-4A2-IgG1wt (antibody)
heavy: not shown
VL: DIQMTQSPSSLSASVGDRVTITCKASQDVGIVVAWYQQKPGKAPKLLIYWASIRHTGVPSRFSGSGSGTEFTLTISSLQPDDFATYYCQQYSNYPLYTFGQGTKVEIK
notes: light chain constant region (kappa) not tied to an entry for this form

Assays:
human C1q = biological target: T1, human C1q (human, UniProt P02745 23-245; P02746 28-253; P02747 29-245); assay: ELISA: antibody coated on the plate at the x-axis concentration, human C1q added (2 µg/mL), bound C1q detected with an anti-C1q mAb
T1 construct: Bought (Cat. No. A400, Quidel); also called complement component C1q
T1 sequence (P02745 23-245, chain 1 of 3): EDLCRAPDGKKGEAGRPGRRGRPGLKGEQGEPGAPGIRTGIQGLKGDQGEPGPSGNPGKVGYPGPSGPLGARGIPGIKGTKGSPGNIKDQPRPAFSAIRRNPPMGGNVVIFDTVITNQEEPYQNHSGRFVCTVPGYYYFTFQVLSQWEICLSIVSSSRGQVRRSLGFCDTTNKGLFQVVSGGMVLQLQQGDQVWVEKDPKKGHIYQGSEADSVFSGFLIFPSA
T1 sequence (P02746 28-253, chain 2 of 3): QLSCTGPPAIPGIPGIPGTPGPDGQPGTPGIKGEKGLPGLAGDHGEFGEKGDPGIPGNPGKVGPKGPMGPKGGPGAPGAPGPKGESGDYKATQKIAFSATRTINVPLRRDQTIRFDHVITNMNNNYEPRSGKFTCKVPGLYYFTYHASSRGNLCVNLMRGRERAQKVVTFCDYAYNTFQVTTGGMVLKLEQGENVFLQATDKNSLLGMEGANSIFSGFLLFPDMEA
T1 sequence (P02747 29-245, chain 3 of 3): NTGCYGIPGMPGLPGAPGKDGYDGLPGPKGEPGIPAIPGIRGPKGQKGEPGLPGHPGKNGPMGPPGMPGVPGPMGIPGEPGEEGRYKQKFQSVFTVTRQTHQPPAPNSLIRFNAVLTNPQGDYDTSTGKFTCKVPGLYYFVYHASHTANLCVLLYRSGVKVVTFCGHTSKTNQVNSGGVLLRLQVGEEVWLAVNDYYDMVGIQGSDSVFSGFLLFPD
Protocol: The ELISA-based C1q binding assay was done by conventional ELISA method with minor modification. […] After blocking and washing, the wells were incubated with 2 μg/mL of human C1q (Cat. No. A400, Quidel, San Diego, USA) at room temperature for 2 hours.

[1] = biological target: T2, human PD-L1, full length, expressed on cells (human, UniProt Q9NZQ7 19-290); assay: FACS competition with PD-1/Fc on HEK293/PD-L1 cells
T2 construct: also called HEK293/PD-L1 cells; HEK293/OS8/PD-L1 cells
T2 sequence (Q9NZQ7 19-290 limits assumed): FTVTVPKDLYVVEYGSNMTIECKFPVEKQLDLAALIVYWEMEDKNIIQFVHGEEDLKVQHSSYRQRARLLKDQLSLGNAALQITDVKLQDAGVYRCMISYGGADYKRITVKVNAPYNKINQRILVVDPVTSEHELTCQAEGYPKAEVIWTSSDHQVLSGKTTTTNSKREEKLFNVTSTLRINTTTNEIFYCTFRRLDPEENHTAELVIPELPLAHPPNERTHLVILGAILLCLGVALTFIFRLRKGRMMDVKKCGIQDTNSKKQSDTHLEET

[2] = biological target: T3, human FcγRIIB expressed on HEK293 cells (human, UniProt P31994 43-310); assay: FACS, 10 µg/mL mAb as immune complex with biotin-PD-L1/His and neutravidin on FcγR-expressing HEK293 cells
T3 construct: whole, on cells
T3 sequence (looked up): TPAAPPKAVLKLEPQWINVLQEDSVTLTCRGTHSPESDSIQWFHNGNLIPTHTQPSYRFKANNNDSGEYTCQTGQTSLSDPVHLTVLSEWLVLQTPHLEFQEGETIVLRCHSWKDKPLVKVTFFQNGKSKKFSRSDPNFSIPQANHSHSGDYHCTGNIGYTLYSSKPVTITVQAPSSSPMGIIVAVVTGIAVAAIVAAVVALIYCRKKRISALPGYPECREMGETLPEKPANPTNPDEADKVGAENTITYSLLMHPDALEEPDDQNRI
Description: (§1) Such bindings are thought to be more relevant under physiological condition, as the binding strength between monomeric γFc and most of the FcγRs is very weak. Human immune system also takes advantage of this mechanism to avoid non-specific activation of FcγRs by monomeric IgG which are present at high levels in serum.

[3] = biological target: T4, human FcγRIIIAF158 expressed on HEK293 cells (human, UniProt P08637 17-254); assay: as above
T4 construct: whole, on cells; Co-expressed with FcRγ subunit
T4 sequence (P08637 17-254): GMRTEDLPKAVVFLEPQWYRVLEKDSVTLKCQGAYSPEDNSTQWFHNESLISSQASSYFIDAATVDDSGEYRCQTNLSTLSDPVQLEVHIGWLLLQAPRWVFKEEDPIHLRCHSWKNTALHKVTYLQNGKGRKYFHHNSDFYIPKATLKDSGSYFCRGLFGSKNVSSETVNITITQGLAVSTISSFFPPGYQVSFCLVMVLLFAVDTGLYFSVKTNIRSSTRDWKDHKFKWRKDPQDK
Description: as §1

[4] = biological target: T5, human FcγRIIAR131 expressed on HEK293 cells (human, UniProt P12318 34-317); assay: as above
T5 construct: whole, on cells
T5 sequence (looked up): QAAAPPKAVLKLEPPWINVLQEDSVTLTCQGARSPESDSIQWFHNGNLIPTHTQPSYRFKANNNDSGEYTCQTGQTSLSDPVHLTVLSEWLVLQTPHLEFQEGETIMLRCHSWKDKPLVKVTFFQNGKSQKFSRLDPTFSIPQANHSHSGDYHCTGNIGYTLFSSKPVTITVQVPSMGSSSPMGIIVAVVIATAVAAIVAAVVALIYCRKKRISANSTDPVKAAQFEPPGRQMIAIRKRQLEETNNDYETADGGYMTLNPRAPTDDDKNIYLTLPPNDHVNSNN
Description: as §1

[5] = biological target: T6, human FcγRIIIAV158 expressed on cells (human, UniProt P08637 17-254); assay: as above
T6 construct: whole, on cells; Co-expressed with FcRγ subunit; on HEK293 cells in the FACS assays, on NK92MI/CD16V cells in the ADCC assay; also called CD16 (V158 allele)
T6 sequence (P08637 17-254 F176V limits assumed): as the sequence (P08637 17-254) above, with F160V counted along it
Description: as §1

[6] = biological target: T7, human FcγRIIAH131 expressed on HEK293 cells (human, UniProt P12318 34-317); assay: as above
T7 construct: whole, on cells
T7 sequence (looked up): T5 sequence (looked up) with R134H
Description: as §1

[7] = biological target: T3, human FcγRIIB expressed on HEK293 cells; assay: FACS, monomeric mAb on FcγR-expressing HEK293 cells
Protocol: (§2) Bindings of humanized anti-PD-L1 in various IgG1 formats (wt, IgG1mc, IgG1mf, SEQ. NO. 27-29) to FcγRs were also determined by flow cytometry. In brief, a series of stable HEK293 transfectants expressing human FcγRs were established. These stable cell lines expressed FcγRI, FcγRIIAH131, FcγRIIAR131, FcγRIIB, FcγRIIIAF158 or FcγRIIIAV158, respectively. Multi-subunit FcγRs (i.e., FcγRI and FcγRIIIA) were co-expressed with FcRγ subunit.

[8] = biological target: T4, human FcγRIIIAF158 expressed on HEK293 …; assay: as above
Protocol: as §2

[9] = biological target: T8, human FcγRI expressed on HEK293 cells (human, UniProt P12314 16-374); assay: as above
T8 construct: whole, on cells; Co-expressed with FcRγ subunit
T8 sequence (P12314 16-374): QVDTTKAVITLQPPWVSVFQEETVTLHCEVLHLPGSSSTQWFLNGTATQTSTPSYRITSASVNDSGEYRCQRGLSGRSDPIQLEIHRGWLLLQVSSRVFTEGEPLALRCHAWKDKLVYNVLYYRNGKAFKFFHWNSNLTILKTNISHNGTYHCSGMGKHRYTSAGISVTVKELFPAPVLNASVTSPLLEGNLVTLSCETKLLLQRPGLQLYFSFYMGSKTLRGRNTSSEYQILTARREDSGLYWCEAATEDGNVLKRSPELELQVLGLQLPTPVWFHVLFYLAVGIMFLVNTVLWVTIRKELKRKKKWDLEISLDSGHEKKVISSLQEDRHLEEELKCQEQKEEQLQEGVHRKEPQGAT
Protocol: as §2

[10] = biological target: T5, human FcγRIIAR131 expressed on HEK293 …; assay: as above
Protocol: as §2

[11] = biological target: T6, human FcγRIIIAV158 expressed on cells; assay: as above
Protocol: as §2

[12] = biological target: T7, human FcγRIIAH131 expressed on HEK293 …; assay: as above
Protocol: as §2

| Binder | binding result (human C1q) | IC50 [1] [µg/mL] | Max inhibition [1] [%] | MFI [2] [MFI] | MFI [3] [MFI] | MFI [4] [MFI] | MFI [5] [MFI] | MFI [6] [MFI] | MFI [7] [MFI] | MFI [8] [MFI] | MFI [9] [MFI] | MFI [10] [MFI] | MFI [11] [MFI] | MFI [12] [MFI] |
| --- | --- | --- | --- | --- | --- | --- | --- | --- | --- | --- | --- | --- | --- | --- |
| B1 | no binding (tested: about 20 µg/ml (coating concentration)) | 0.167 | 100 | 5.03 | 6.81 | 5.28 | 4.89 | 8.09 | 4.49 | 5.42 | 4.78 | 3.64 | 4.14 | 6.16 |
| B2 | no binding (tested: about 20 µg/ml (coating concentration)) | 0.172 | 100 | 5.05 | 6.44 | 5.38 | 5.43 | 7.53 | 3.71 | 5.2 | 4.29 | 3.8 | 3.87 | 5.78 |
| B3 | no binding (tested: about 20 µg/ml (coating concentration)) | 0.174 | 100 | 5 | 6.76 | 4.92 | 4.83 | 7.27 | 3.73 | 5.09 | 4.56 | 3.99 | 3.91 | 6.12 |
| B4 | binds | – | – | 539 | 74.2 | 159 | 309 | 599 | 19 | 29.4 | 1170 | 15.1 | 91.7 | 40.5 |
